Changes are numbered by the printed parent chain. Numbers in names are those of the source.
B1: B. megaterium levansucrase (Priestia megaterium DSM 319; K373H) (protein)
chain: KGNDSKDFNNSYGISHITRDNMVKIPQQQNSDQFKVPAFDESTIKNIASAKGKNASGNTIDLDVWDSWPLQNADGTVATYHGYQIVFALAGDPKDSNDTSVYLFYKKAGDKSIDSWKNAGRVFKDSDKFVPNDPHLKNQTQEWSGSGTLTKDGKVRLFYTDYSGKQYGKQTLTTAQVNMSQPNDNTLKVDGVEDYKSIFDGDGKIYQTVQQFIDEGGYDTGDNHTLRDPHYIEDNGHKYLVFEANTGTEDGYQGEDSLYNRAYYGGNNPFFQSEKKKLLEGSNKEKASLANGALGIIELNDDYTLKKVMKPLITSNTVTDEIERANIFKKDGKWYLFTDSRGSHMTIDGIGQDDVYMLGYVSNTLTGKYKPLNDTGLVLHMDLDPNDKTFTYSHFAVPQTKGDNVVITSYMTNRGFYEDNHSTFAPSFLVNIDGSKTSVVKDRVLEQGQLTVDED
notes: recombinant, E. coli BL21(DE3), pRSF-derived vector, purified from cleared lysate on CM sepharose
B2: B. megaterium levansucrase (Priestia megaterium DSM 319; K373L) (protein)
chain: B1 chain with H344L
notes: as for B1

Substrate: OC[C@H]1O[C@@](CO)(O[C@H]2O[C@H](CO)[C@@H](O)[C@H](O)[C@H]2O)[C@@H](O)[C@@H]1O
Test: initial rates, DNS reducing sugar assay, Michaelis-Menten fit
Type: biochemical, Priestia megaterium
Description: initial rates, DNS reducing sugar assay, Michaelis-Menten fit on B. megaterium levansucrase

[1] = 50 mM Sörensen buffer pH 6.5, variant 1B1, global activity (hydrolysis and transfer)
[2] = 50 mM Sörensen buffer pH 6.5, variant 3C5, global activity (hydrolysis and transfer)

Protein | Km [1] | kcat [1] | kcat/Km [1] | Km [2] | kcat [2] | kcat/Km [2]
B1 | 41.8 ± 6.6 mM | 198 ± 8.4 s⁻¹ | 4720 M⁻¹ s⁻¹ | – | – | –
B2 | – | – | – | 12.5 ± 1.3 mM | 122 ± 2.3 s⁻¹ | 9800 M⁻¹ s⁻¹

From publication PMC6531494, “Exploring the sequence variability of polymerization-involved residues in the production of levan- and inulin-type fructooligosaccharides with a levansucrase” (Scientific Reports, 2019)
